Source: PMC10576006, “Structural insights into the complex of oncogenic KRas4B^G12V and Rgl2, a RalA/B activator” (Life Science Alliance, 2023)

Target: T1, human wildtype KRas4B 1-169 (C-terminal truncated) (human, UniProt P01116-2 1-169)
T1 construct: human wildtype KRas4B isoform, residues 1-169, lacking the C-terminal hyper-variable region; Loaded with GTP for BLI; also called KRas4B^WT; KRas (WT); source: E. coli DE3 Rosetta, purified (Ni-sepharose, TEV cleavage, SEC); not shown: His6, N-terminal, cleaved
Assay: BLI; Octet R8; GST fusion (0.7 uM) immobilised on anti-GST biosensors; GTP-loaded KRas4B as analyte (200 nM-15 uM for Rgl2^RA, 20 nM-5 uM for BRAF^RBD); GF buffer (20 mM Tris pH 7.65, 100 mM NaCl, 5 mM MgCl2, 1 mM TCEP); 20°C; double referencing; 1:1 binding model
Conditions: both partners purified

Kd: ~1480 nM
B1: GST-Rgl2^RA (Ras association domain of human Rgl2, residues 643-740, fused with GST) (domain or fragment, UniProt O15211 643-740, looked up)
chain: GPGASDCRIIRVQMELGEDGSVYKSILVTSQDKAPSVISRVLKKNNRDSAVASEYELVQLLPGERELTIPASANVFYAMDGASHDFLLRQRRRSSTAT
notes: human Rgl2, residues 643-740, holding the Ras-associating (RA) domain (648-735 in UniProt O15211); A TEV site lies between GST and Rgl2^RA (vector pLEICS2); source: E. coli DE3 Rosetta, purified (glutathione beads, SEC); not shown: GST, N-terminal, kept
